Source: patent US20120270784A1 (THERATECHNOLOGIES, published 2012)
Where no end group is shown, it is not given here.

T1: human GRF receptor (human, UniProt Q02643 23-423)
T1 sequence (looked up): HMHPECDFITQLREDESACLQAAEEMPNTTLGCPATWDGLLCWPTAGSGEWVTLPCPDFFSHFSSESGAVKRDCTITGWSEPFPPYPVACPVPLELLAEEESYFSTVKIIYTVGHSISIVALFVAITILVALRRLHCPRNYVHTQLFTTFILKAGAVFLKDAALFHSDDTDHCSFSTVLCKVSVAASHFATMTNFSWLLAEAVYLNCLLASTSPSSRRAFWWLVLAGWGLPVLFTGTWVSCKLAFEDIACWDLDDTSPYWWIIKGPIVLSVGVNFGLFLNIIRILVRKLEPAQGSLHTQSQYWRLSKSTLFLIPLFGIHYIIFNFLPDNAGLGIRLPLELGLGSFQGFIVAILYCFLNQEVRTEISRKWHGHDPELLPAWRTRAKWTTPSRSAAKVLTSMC


Biological target: T1, human GRF receptor
Test: cell-based or functional assay

| Binder | EC50 as assessed by alkaline phosphatase (AP) induction [nM] |
| --- | --- |
| YGDAIFTDSYRKVLAQLKARQDILARAARAAR-NH2 [YGDAIFTDSYRKVLAQLKARQDILARAARAAR-NH2 (SEQ ID NO: 34)] | 0.2 |
| YADAIFTDSYRKVLAQLSARQDIMSR (HELM PEPTIDE1{[CC/C=C/CC(=O)[*:2]].Y.A.D.A.I.F.T.D.S.Y.R.K.V.L.A.Q.L.S.A.R.Q.D.I.M.S.R.[am]}$$$$V2.0; SMILES CC/C=C/CC(=O)N[C@@H](Cc1ccc(O)cc1)C(=O)N[C@@H](C)C(=O)N[C@@H](CC(=O)O)C(=O)N[C@@H](C)C(=O)N[C@H](C(=O)N[C@@H](Cc1ccccc1)C(=O)N[C@H](C(=O)N[C@@H](CC(=O)O)C(=O)N[C@@H](CO)C(=O)N[C@@H](Cc1ccc(O)cc1)C(=O)N[C@@H](CCCNC(=N)N)C(=O)N[C@@H](CCCCN)C(=O)N[C@H](C(=O)N[C@@H](CC(C)C)C(=O)N[C@@H](C)C(=O)N[C@@H](CCC(N)=O)C(=O)N[C@@H](CC(C)C)C(=O)N[C@@H](CO)C(=O)N[C@@H](C)C(=O)N[C@@H](CCCNC(=N)N)C(=O)N[C@@H](CCC(N)=O)C(=O)N[C@@H](CC(=O)O)C(=O)N[C@H](C(=O)N[C@@H](CCSC)C(=O)N[C@@H](CO)C(=O)N[C@@H](CCCNC(=N)N)C(N)=O)[C@@H](C)CC)C(C)C)[C@@H](C)O)[C@@H](C)CC) [Trans-3-hexenoyl-YADAIFTDSYRKVLAQLSARQDIMSR-NH2 (SEQ ID NO: 44)] | 9.73 |
| YLDAIFTDSYRKVLAQLKARQDILARAARAAR-NH2 [YLDAIFTDSYRKVLAQLKARQDILARAARAAR-NH2 (SEQ ID NO: 35)] | 2.52 |
| YGDAIFTDSYRKVLAQLKARQDILARAARAARX (HELM PEPTIDE1{Y.G.D.A.I.F.T.D.S.Y.R.K.V.L.A.Q.L.K.A.R.Q.D.I.L.A.R.A.A.R.A.A.R.[O=C([C@H](CCO)N[*:1])[*:2]].[am]}$$$$V2.0; N-terminus assumed; SMILES CC[C@H](C)[C@H](NC(=O)[C@H](C)NC(=O)[C@H](CC(=O)O)NC(=O)CNC(=O)[C@@H](N)Cc1ccc(O)cc1)C(=O)N[C@@H](Cc1ccccc1)C(=O)N[C@H](C(=O)N[C@@H](CC(=O)O)C(=O)N[C@@H](CO)C(=O)N[C@@H](Cc1ccc(O)cc1)C(=O)N[C@@H](CCCNC(=N)N)C(=O)N[C@@H](CCCCN)C(=O)N[C@H](C(=O)N[C@@H](CC(C)C)C(=O)N[C@@H](C)C(=O)N[C@@H](CCC(N)=O)C(=O)N[C@@H](CC(C)C)C(=O)N[C@@H](CCCCN)C(=O)N[C@@H](C)C(=O)N[C@@H](CCCNC(=N)N)C(=O)N[C@@H](CCC(N)=O)C(=O)N[C@@H](CC(=O)O)C(=O)N[C@H](C(=O)N[C@@H](CC(C)C)C(=O)N[C@@H](C)C(=O)N[C@@H](CCCNC(=N)N)C(=O)N[C@@H](C)C(=O)N[C@@H](C)C(=O)N[C@@H](CCCNC(=N)N)C(=O)N[C@@H](C)C(=O)N[C@@H](C)C(=O)N[C@@H](CCCNC(=N)N)C(=O)N[C@@H](CCO)C(N)=O)[C@@H](C)CC)C(C)C)[C@@H](C)O) [YGDAIFTDSYRKVLAQLKARQDILARAARAAR-HoSer-NH2 (SEQ ID NO: 36)] | 0.2 |
| YXDAIFTDSYRKVLAQLKARQDILARAARAARX (HELM PEPTIDE1{Y.[dA].D.A.I.F.T.D.S.Y.R.K.V.L.A.Q.L.K.A.R.Q.D.I.L.A.R.A.A.R.A.A.R.[O=C([C@H](CCO)N[*:1])[*:2]].[am]}$$$$V2.0; N-terminus assumed; SMILES CC[C@H](C)[C@H](NC(=O)[C@H](C)NC(=O)[C@H](CC(=O)O)NC(=O)[C@@H](C)NC(=O)[C@@H](N)Cc1ccc(O)cc1)C(=O)N[C@@H](Cc1ccccc1)C(=O)N[C@H](C(=O)N[C@@H](CC(=O)O)C(=O)N[C@@H](CO)C(=O)N[C@@H](Cc1ccc(O)cc1)C(=O)N[C@@H](CCCNC(=N)N)C(=O)N[C@@H](CCCCN)C(=O)N[C@H](C(=O)N[C@@H](CC(C)C)C(=O)N[C@@H](C)C(=O)N[C@@H](CCC(N)=O)C(=O)N[C@@H](CC(C)C)C(=O)N[C@@H](CCCCN)C(=O)N[C@@H](C)C(=O)N[C@@H](CCCNC(=N)N)C(=O)N[C@@H](CCC(N)=O)C(=O)N[C@@H](CC(=O)O)C(=O)N[C@H](C(=O)N[C@@H](CC(C)C)C(=O)N[C@@H](C)C(=O)N[C@@H](CCCNC(=N)N)C(=O)N[C@@H](C)C(=O)N[C@@H](C)C(=O)N[C@@H](CCCNC(=N)N)C(=O)N[C@@H](C)C(=O)N[C@@H](C)C(=O)N[C@@H](CCCNC(=N)N)C(=O)N[C@@H](CCO)C(N)=O)[C@@H](C)CC)C(C)C)[C@@H](C)O) [Y-a-DAIFTDSYRKVLAQLKARQDILARAARAAR-HoSer-NH2 (SEQ ID NO: 37)] | 0.2 |
| YADAIFTDSYRKVLAQLSARQDILAR (HELM PEPTIDE1{[CC/C=C/CC(=O)[*:2]].Y.A.D.A.I.F.T.D.S.Y.R.K.V.L.A.Q.L.S.A.R.Q.D.I.L.A.R.[am]}$$$$V2.0; SMILES CC/C=C/CC(=O)N[C@@H](Cc1ccc(O)cc1)C(=O)N[C@@H](C)C(=O)N[C@@H](CC(=O)O)C(=O)N[C@@H](C)C(=O)N[C@H](C(=O)N[C@@H](Cc1ccccc1)C(=O)N[C@H](C(=O)N[C@@H](CC(=O)O)C(=O)N[C@@H](CO)C(=O)N[C@@H](Cc1ccc(O)cc1)C(=O)N[C@@H](CCCNC(=N)N)C(=O)N[C@@H](CCCCN)C(=O)N[C@H](C(=O)N[C@@H](CC(C)C)C(=O)N[C@@H](C)C(=O)N[C@@H](CCC(N)=O)C(=O)N[C@@H](CC(C)C)C(=O)N[C@@H](CO)C(=O)N[C@@H](C)C(=O)N[C@@H](CCCNC(=N)N)C(=O)N[C@@H](CCC(N)=O)C(=O)N[C@@H](CC(=O)O)C(=O)N[C@H](C(=O)N[C@@H](CC(C)C)C(=O)N[C@@H](C)C(=O)N[C@@H](CCCNC(=N)N)C(N)=O)[C@@H](C)CC)C(C)C)[C@@H](C)O)[C@@H](C)CC) [Trans-3-hexenoyl-YADAIFTDSYRKVLAQLSARQDILAR-NH2 (SEQ ID NO: 45)] | 7.55 |
| YADAIFTDSYRKVLAQLSARQDILSX (HELM PEPTIDE1{[CC/C=C/CC(=O)[*:2]].Y.A.D.A.I.F.T.D.S.Y.R.K.V.L.A.Q.L.S.A.R.Q.D.I.L.S.[dR].[am]}$$$$V2.0; SMILES CC/C=C/CC(=O)N[C@@H](Cc1ccc(O)cc1)C(=O)N[C@@H](C)C(=O)N[C@@H](CC(=O)O)C(=O)N[C@@H](C)C(=O)N[C@H](C(=O)N[C@@H](Cc1ccccc1)C(=O)N[C@H](C(=O)N[C@@H](CC(=O)O)C(=O)N[C@@H](CO)C(=O)N[C@@H](Cc1ccc(O)cc1)C(=O)N[C@@H](CCCNC(=N)N)C(=O)N[C@@H](CCCCN)C(=O)N[C@H](C(=O)N[C@@H](CC(C)C)C(=O)N[C@@H](C)C(=O)N[C@@H](CCC(N)=O)C(=O)N[C@@H](CC(C)C)C(=O)N[C@@H](CO)C(=O)N[C@@H](C)C(=O)N[C@@H](CCCNC(=N)N)C(=O)N[C@@H](CCC(N)=O)C(=O)N[C@@H](CC(=O)O)C(=O)N[C@H](C(=O)N[C@@H](CC(C)C)C(=O)N[C@@H](CO)C(=O)N[C@H](CCCNC(=N)N)C(N)=O)[C@@H](C)CC)C(C)C)[C@@H](C)O)[C@@H](C)CC) [Trans-3-hexenoyl-YADAIFTDSYRKVLAQLSARQDILS-r-NH2 (SEQ ID NO: 46)] | 15.1 |
| YADAIFTDSYRKVLAQLKARQDILAR (HELM PEPTIDE1{[CC/C=C/CC(=O)[*:2]].Y.A.D.A.I.F.T.D.S.Y.R.K.V.L.A.Q.L.K.A.R.Q.D.I.L.A.R.[am]}$$$$V2.0; SMILES CC/C=C/CC(=O)N[C@@H](Cc1ccc(O)cc1)C(=O)N[C@@H](C)C(=O)N[C@@H](CC(=O)O)C(=O)N[C@@H](C)C(=O)N[C@H](C(=O)N[C@@H](Cc1ccccc1)C(=O)N[C@H](C(=O)N[C@@H](CC(=O)O)C(=O)N[C@@H](CO)C(=O)N[C@@H](Cc1ccc(O)cc1)C(=O)N[C@@H](CCCNC(=N)N)C(=O)N[C@@H](CCCCN)C(=O)N[C@H](C(=O)N[C@@H](CC(C)C)C(=O)N[C@@H](C)C(=O)N[C@@H](CCC(N)=O)C(=O)N[C@@H](CC(C)C)C(=O)N[C@@H](CCCCN)C(=O)N[C@@H](C)C(=O)N[C@@H](CCCNC(=N)N)C(=O)N[C@@H](CCC(N)=O)C(=O)N[C@@H](CC(=O)O)C(=O)N[C@H](C(=O)N[C@@H](CC(C)C)C(=O)N[C@@H](C)C(=O)N[C@@H](CCCNC(=N)N)C(N)=O)[C@@H](C)CC)C(C)C)[C@@H](C)O)[C@@H](C)CC) [Trans-3-hexenoyl-YADAIFTDSYRKVLAQLKARQDILAR-NH2 (SEQ ID NO: 20)] | 0.98 |
| YXDAIFTDSYRKVLAQLKARQDILSX (HELM PEPTIDE1{Y.[dA].D.A.I.F.T.D.S.Y.R.K.V.L.A.Q.L.K.A.R.Q.D.I.L.S.[dR].[am]}$$$$V2.0; N-terminus assumed; SMILES CC[C@H](C)[C@H](NC(=O)[C@H](C)NC(=O)[C@H](CC(=O)O)NC(=O)[C@@H](C)NC(=O)[C@@H](N)Cc1ccc(O)cc1)C(=O)N[C@@H](Cc1ccccc1)C(=O)N[C@H](C(=O)N[C@@H](CC(=O)O)C(=O)N[C@@H](CO)C(=O)N[C@@H](Cc1ccc(O)cc1)C(=O)N[C@@H](CCCNC(=N)N)C(=O)N[C@@H](CCCCN)C(=O)N[C@H](C(=O)N[C@@H](CC(C)C)C(=O)N[C@@H](C)C(=O)N[C@@H](CCC(N)=O)C(=O)N[C@@H](CC(C)C)C(=O)N[C@@H](CCCCN)C(=O)N[C@@H](C)C(=O)N[C@@H](CCCNC(=N)N)C(=O)N[C@@H](CCC(N)=O)C(=O)N[C@@H](CC(=O)O)C(=O)N[C@H](C(=O)N[C@@H](CC(C)C)C(=O)N[C@@H](CO)C(=O)N[C@H](CCCNC(=N)N)C(N)=O)[C@@H](C)CC)C(C)C)[C@@H](C)O) [Y-a-DAIFTDSYRKVLAQLKARQDILS-r-NH2 (SEQ ID NO: 21)] | 2.47 |
